{"source": "patent US20190241648A1", "about": "(STATEN BIOTECHNOLOGY B V, published 2019)", "binders": {"B1": {"name": "Llama antibody 5E5 (antibody, V domains shown)", "VH": "QLQLVESGGGLVQPGGSLRLSCAASGFTFGTYSMRWVRQVPRKALEWVSSISTDGGGTAYRDSVKGRFTISRDNAKNTLYLQMNNLKPEDTAIYYCVIAGYSDWGQGTQVTVSS", "VL": "ATMLTQSPGSLSVVPGESASISCKTSQGLVHSDGKTYFYWFLQKPGQSPQQLIYQVSNRASGVPDRFTGSGSGTDFTLKISGVKAEDAGVYYCAQGTYYPHTFGSGTRLEIK", "notes": "detected with goat anti-human IgG (Fc); also called mAb 5E5"}}, "assay_in_all_cases": "cyclic peptide substitution array", "key": {"ApoC3 peptide F64E": {"molecular_target": "T1, ApoC3 peptide F64E (human, cyclic (thioether))", "T1 peptide": "DKFSEEWDLDPEV", "method_in_brief": "(§1)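 Peptide microarrays incubated with antibody samples, then stained with goat anti-human IgG (Fc) DyLight680 and anti-HA DyLight800 control antibodies, scanned at intensity 7/7 (red/green). Secondary-only pre-stain checked background binding; framing HA peptides served as quality control; substitution effects read as changes in spot intensity.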"}, "ApoC3 peptide L67F": {"molecular_target": "T2, ApoC3 peptide L67F (human, thioether (positions not given here); not fully specified (bridges); also: thioether between a C-terminal Cys side chain and a modified N-terminus, the Cys is not in the chain)", "T2 peptide": "DKFSEFWDFDPEV", "method_in_brief": "as §1"}, "ApoC3 peptide P69F": {"molecular_target": "T3, ApoC3 peptide P69F (human, not fully specified; cyclic (thioether))", "T3 peptide": "DKFSEFWDLDFEV", "method_in_brief": "as §1"}, "ApoC3 peptide V71F": {"molecular_target": "T4, ApoC3 peptide V71F (human, thioether (positions not given here); also: cyclic (thioether), ring places not given here)", "T4 peptide": "DKFSEFWDLDPEF", "method_in_brief": "as §1"}, "ApoC3 peptide F61G": {"molecular_target": "T5, ApoC3 peptide F61G (human, cyclic (thioether))", "T5 peptide": "DKGSEFWDLDPEV", "method_in_brief": "as §1"}, "ApoC3 peptide E63G": {"molecular_target": "T6, ApoC3 peptide E63G (human, not fully specified; cyclic (thioether))", "T6 peptide": "DKFSGFWDLDPEV", "method_in_brief": "as §1"}, "ApoC3 peptide D66G": {"molecular_target": "T7, ApoC3 peptide D66G (human, not fully specified; cyclic (thioether))", "T7 peptide": "DKFSEFWGLDPEV", "method_in_brief": "as §1"}, "ApoC3 peptide P69G": {"molecular_target": "T8, ApoC3 peptide P69G (human, not fully specified; cyclic (thioether))", "T8 peptide": "DKFSEFWDLDGEV", "method_in_brief": "as §1"}, "ApoC3 peptide D59H": {"molecular_target": "T9, ApoC3 peptide D59H (human, thioether (positions not given here); not fully specified (C-terminus, bridges))", "T9 peptide": "HKFSEFWDLDPEV", "method_in_brief": "as §1"}, "ApoC3 peptide L67H": {"molecular_target": "T10, ApoC3 peptide L67H (human, thioether (positions not given here); not fully specified (bridges); also: thioether between a C-terminal Cys side chain and a modified N-terminus, the Cys is not in the chain)", "T10 peptide": "DKFSEFWDHDPEV", "method_in_brief": "as §1"}, "ApoC3 peptide W65K": {"molecular_target": "T11, ApoC3 peptide W65K (human, cyclic (thioether))", "T11 peptide": "DKFSEFKDLDPEV", "method_in_brief": "as §1"}, "ApoC3 peptide P69L": {"molecular_target": "T12, ApoC3 peptide P69L (human, not fully specified; cyclic (thioether))", "T12 peptide": "DKFSEFWDLDLEV", "method_in_brief": "as §1"}, "ApoC3 peptide V71L": {"molecular_target": "T13, ApoC3 peptide V71L (human, thioether (positions not given here); also: cyclic (thioether), ring places not given here)", "T13 peptide": "DKFSEFWDLDPEL", "method_in_brief": "as §1"}, "ApoC3 peptide F64M": {"molecular_target": "T14, ApoC3 peptide F64M (human, thioether (positions not given here); not fully specified (bridges); also: cyclic (thioether), positions not given here)", "T14 peptide": "DKFSEMWDLDPEV", "method_in_brief": "as §1"}, "ApoC3 peptide W65N": {"molecular_target": "T15, ApoC3 peptide W65N (human, not fully specified; cyclic (thioether))", "T15 peptide": "DKFSEFNDLDPEV", "method_in_brief": "as §1"}, "ApoC3 peptide P69N": {"molecular_target": "T16, ApoC3 peptide P69N (human, not fully specified; cyclic (thioether))", "T16 peptide": "DKFSEFWDLDNEV", "method_in_brief": "as §1"}, "ApoC3 peptide S62P": {"molecular_target": "T17, ApoC3 peptide S62P (human, thioether (positions not given here); also: cyclic (thioether), ring places not given here)", "T17 peptide": "DKFPEFWDLDPEV", "method_in_brief": "as §1"}, "ApoC3 peptide D68P": {"molecular_target": "T18, ApoC3 peptide D68P (human, cyclic (thioether))", "T18 peptide": "DKFSEFWDLPPEV", "method_in_brief": "as §1"}, "ApoC3 peptide W65Q": {"molecular_target": "T19, ApoC3 peptide W65Q (human, cyclic (thioether))", "T19 peptide": "DKFSEFQDLDPEV", "method_in_brief": "as §1"}, "ApoC3 peptide P69Q": {"molecular_target": "T20, ApoC3 peptide P69Q (human, not fully specified; cyclic (thioether))", "T20 peptide": "DKFSEFWDLDQEV", "method_in_brief": "as §1"}, "ApoC3 peptide E63R": {"molecular_target": "T21, ApoC3 peptide E63R (human, cyclic (thioether))", "T21 peptide": "DKFSRFWDLDPEV", "method_in_brief": "as §1"}, "ApoC3 peptide W65R": {"molecular_target": "T22, ApoC3 peptide W65R (human, cyclic (thioether))", "T22 peptide": "DKFSEFRDLDPEV", "method_in_brief": "as §1"}, "ApoC3 peptide D66R": {"molecular_target": "T23, ApoC3 peptide D66R (human, not fully specified; cyclic (thioether))", "T23 peptide": "DKFSEFWRLDPEV", "method_in_brief": "as §1"}, "ApoC3 peptide E63S": {"molecular_target": "T24, ApoC3 peptide E63S (human, cyclic (thioether))", "T24 peptide": "DKFSSFWDLDPEV", "method_in_brief": "as §1"}, "ApoC3 peptide D66S": {"molecular_target": "T25, ApoC3 peptide D66S (human, not fully specified; cyclic (thioether))", "T25 peptide": "DKFSEFWSLDPEV", "method_in_brief": "as §1"}, "ApoC3 peptide D66T": {"molecular_target": "T26, ApoC3 peptide D66T (human, not fully specified; cyclic (thioether))", "T26 peptide": "DKFSEFWTLDPEV", "method_in_brief": "as §1"}, "ApoC3 peptide K60W": {"molecular_target": "T27, ApoC3 peptide K60W (human, cyclic (thioether))", "T27 peptide": "DWFSEFWDLDPEV", "method_in_brief": "as §1"}, "ApoC3 peptide P69W": {"molecular_target": "T28, ApoC3 peptide P69W (human, not fully specified; cyclic (thioether))", "T28 peptide": "DKFSEFWDLDWEV", "method_in_brief": "as §1"}, "ApoC3 peptide S62Y": {"molecular_target": "T29, ApoC3 peptide S62Y (human, thioether (positions not given here); also: cyclic (thioether), ring places not given here)", "T29 peptide": "DKFYEFWDLDPEV", "method_in_brief": "as §1"}, "ApoC3 peptide D66A": {"molecular_target": "T30, ApoC3 peptide D66A (human, not fully specified; cyclic (thioether))", "T30 peptide": "DKFSEFWALDPEV", "method_in_brief": "as §1"}, "ApoC3 peptide P69A": {"molecular_target": "T31, ApoC3 peptide P69A (human, thioether (positions not given here); not fully specified (bridges); also: thioether from modified N-terminus to C-terminal Cys (Cys not in chain))", "T31 peptide": "DKFSEFWDLDAEV", "method_in_brief": "as §1"}}, "note": "Ends that are not written are not given here.", "data": [{"binder": "B1", "values": [{"measurement": "% of binding to wild-type peptide", "setting": "ApoC3 peptide F64E", "value": 283, "unit": "%"}, {"measurement": "% of binding to wild-type peptide", "setting": "ApoC3 peptide L67F", "value": 0.37, "unit": "%"}, {"measurement": "% of binding to wild-type peptide", "setting": "ApoC3 peptide P69F", "value": 11.6, "unit": "%"}, {"measurement": "% of binding to wild-type peptide", "setting": "ApoC3 peptide V71F", "value": 81.4, "unit": "%"}, {"measurement": "% of binding to wild-type peptide", "setting": "ApoC3 peptide F61G", "value": 0.74, "unit": "%"}, {"measurement": "% of binding to wild-type peptide", "setting": "ApoC3 peptide E63G", "value": 0, "unit": "%"}, {"measurement": "% of binding to wild-type peptide", "setting": "ApoC3 peptide D66G", "value": 0, "unit": "%"}, {"measurement": "% of binding to wild-type peptide", "setting": "ApoC3 peptide P69G", "value": 24.6, "unit": "%"}, {"measurement": "% of binding to wild-type peptide", "setting": "ApoC3 peptide D59H", "value": 52.8, "unit": "%"}, {"measurement": "% of binding to wild-type peptide", "setting": "ApoC3 peptide L67H", "value": 3.58, "unit": "%"}, {"measurement": "% of binding to wild-type peptide", "setting": "ApoC3 peptide W65K", "value": 0, "unit": "%"}, {"measurement": "% of binding to wild-type peptide", "setting": "ApoC3 peptide P69L", "value": 16.7, "unit": "%"}, {"measurement": "% of binding to wild-type peptide", "setting": "ApoC3 peptide V71L", "value": 90.6, "unit": "%"}, {"measurement": "% of binding to wild-type peptide", "setting": "ApoC3 peptide F64M", "value": 132, "unit": "%"}, {"measurement": "% of binding to wild-type peptide", "setting": "ApoC3 peptide W65N", "value": 0, "unit": "%"}, {"measurement": "% of binding to wild-type peptide", "setting": "ApoC3 peptide P69N", "value": 19.4, "unit": "%"}, {"measurement": "% of binding to wild-type peptide", "setting": "ApoC3 peptide S62P", "value": 0, "unit": "%"}, {"measurement": "% of binding to wild-type peptide", "setting": "ApoC3 peptide D68P", "value": 28.6, "unit": "%"}, {"measurement": "% of binding to wild-type peptide", "setting": "ApoC3 peptide W65Q", "value": 0, "unit": "%"}, {"measurement": "% of binding to wild-type peptide", "setting": "ApoC3 peptide P69Q", "value": 24.3, "unit": "%"}, {"measurement": "% of binding to wild-type peptide", "setting": "ApoC3 peptide E63R", "value": 2.19, "unit": "%"}, {"measurement": "% of binding to wild-type peptide", "setting": "ApoC3 peptide W65R", "value": 0.02, "unit": "%"}, {"measurement": "% of binding to wild-type peptide", "setting": "ApoC3 peptide D66R", "value": 0.17, "unit": "%"}, {"measurement": "% of binding to wild-type peptide", "setting": "ApoC3 peptide E63S", "value": 47.9, "unit": "%"}, {"measurement": "% of binding to wild-type peptide", "setting": "ApoC3 peptide D66S", "value": 0, "unit": "%"}, {"measurement": "% of binding to wild-type peptide", "setting": "ApoC3 peptide D66T", "value": 0, "unit": "%"}, {"measurement": "% of binding to wild-type peptide", "setting": "ApoC3 peptide K60W", "value": 41.9, "unit": "%"}, {"measurement": "% of binding to wild-type peptide", "setting": "ApoC3 peptide P69W", "value": 5.36, "unit": "%"}, {"measurement": "% of binding to wild-type peptide", "setting": "ApoC3 peptide S62Y", "value": 0, "unit": "%"}, {"measurement": "% of binding to wild-type peptide", "setting": "ApoC3 peptide D66A", "value": 0, "unit": "%"}, {"measurement": "% of binding to wild-type peptide", "setting": "ApoC3 peptide P69A", "value": 25.7, "unit": "%"}]}]}
